Experimental data taken from the supplement of paper PMC10126150.
± gives the standard deviation of the averaged measurements.

System: ATP
Assay: switch fluorescence ratio, 500 uM ATP over buffer (Cy3 cluster intensity, sum of 5 cycles each) (fold (ratio)); higher = stronger signal-on switching upon ATP binding; sequences stand for … in TCGTCGGCAGCGTCAGATGTGTATAAGAGACAGTTTTTTTTTTTTTTTTTTTTTTTTT…TC
Conditions: aptamer strand: ATP DNA aptamer (quencher-CACCTGGGGGAGTATTGCGGAGGAAGG + anchor), 100 nM annealed; ATP concentration: 500 uM
In short: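 Clusters carrying Cy3-labelled switching strands on a modified Illumina MiSeq flow-cell were annealed to 100 nM quencher-labelled ATP aptamer and imaged in selection buffer. They were imaged again after 15 min with 500 uM ATP at 22 °C, over five buffer/ATP cycles with NaOH stripping and re-annealing in between. For each cluster, the fluorescence ratio is the summed Cy3 intensity of the target cycles divided by that of the buffer cycles, averaged per switch-domain sequence. Clusters outside 100-1000 RFU were left out.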
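Also: ATP exposure 15 min at 22 °C before imaging.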

| Sequence | switch fluorescence ratio |
| --- | --- |
| CTGGGCGGGG | 1.01 ± 0.026 |
| CTGGGGAGGG | 1 ± 0.048 |
| CTGGGGATTA | 0.972 ± 0.031 |
| CTGGGGGAAT | 1.01 ± 0.013 |
| CTGGGGGGGC | 1.01 ± 0.043 |
| CTGGGGTATG | 0.985 ± 0.028 |
| CTGGGGTTGC | 0.96 ± 0.03 |
| CTGGGGTTTG | 0.956 ± 0.019 |
| CTGGGTGTAT | 0.984 ± 0.063 |
| CTGGGTTGGG | 1.01 ± 0.043 |
| CTGGGTTGGT | 0.972 ± 0.024 |
| CTGGGTTTGT | 0.981 ± 0.016 |
| CTGGTATAGA | 1 ± 0.046 |
| CTGGTATTCT | 0.996 ± 0.037 |
| CTGGTGGACG | 1.041 ± 0.0042 |
| CTGGTGTAGT | 1.03 ± 0.047 |
| CTGGTTAGGG | 0.98 ± 0.018 |
| CTGGTTGGGT | 1.01 ± 0.027 |
| CTGGTTGTCT | 1.01 ± 0.006 |
| CTGGTTTAGC | 1 ± 0.016 |
| CTGGTTTAGG | 1 ± 0.036 |
| CTGGTTTAGT | 0.978 ± 0.016 |
| CTGTAAGGTT | 1.09 ± 0.14 |
| CTGTAAGTGG | 0.989 ± 0.017 |
| CTGTAATAAG | 1.09 ± 0.075 |

| Sequence | switch fluorescence ratio |
| --- | --- |
| CTGTAGTTTT | 1.04 ± 0.038 |
| CTGTATTGGG | 0.977 ± 0.013 |
| CTGTCCTTTT | 1.11 ± 0.17 |
| CTGTCGACTG | 1.04 ± 0.017 |
| CTGTCGTATG | 0.9749 ± 0.0082 |
| CTGTCTATGC | 1.33 ± 0.049 |
| CTGTCTCAAG | 0.97 ± 0.059 |
| CTGTCTGAGT | 0.9632 ± 0.007 |
| CTGTCTGTGC | 1.09 ± 0.044 |
| CTGTGAAAAA | 1.09 ± 0.043 |
| CTGTGCGACA | 1.06 ± 0.053 |
| CTGTGCTAAT | 1.1 ± 0.037 |
| CTGTGCTGT | 1.005 ± 0.0062 |
| CTGTGGCGCT | 1.01 ± 0.019 |
| CTGTGGGTTG | 1 ± 0.042 |
| CTGTGTAGTG | 0.9954 ± 0.002 |
| CTGTGTGCGG | 0.97 ± 0.03 |
| CTGTGTGTTC | 1.01 ± 0.026 |
| CTGTTAGGAT | 0.99 ± 0.028 |
| CTGTTCGCCA | 1.07 ± 0.077 |
| CTGTTGATGG | 1 ± 0.027 |
| CTGTTGGGGT | 0.988 ± 0.017 |
| CTGTTGTCGG | 0.989 ± 0.038 |
| CTGTTTGCAG | 0.987 ± 0.056 |
| CTGTTTTACT | 1.03 ± 0.042 |

| Sequence | switch fluorescence ratio |
| --- | --- |
| CTGTTTTTTT | 0.981 ± 0.039 |
| CTTAAAAAGG | 0.989 ± 0.0056 |
| CTTAAAGTAT | 0.9977 ± 0.0024 |
| CTTAAATTAT | 0.9967 ± 0.0089 |
| CTTAACAGCG | 1.01 ± 0.02 |
| CTTAACATGC | 1.06 ± 0.049 |
| CTTAACCATT | 0.98 ± 0.014 |
| CTTACCTTGA | 0.997 ± 0.031 |
| CTTAGATTCT | 0.993 ± 0.012 |
| CTTAGGCCAC | 0.99 ± 0.024 |
| CTTAGGGCAC | 1.05 ± 0.016 |
| CTTAGGGGGT | 1 ± 0.018 |
| CTTAGGGGTA | 0.999 ± 0.043 |
| CTTAGTAATG | 1.05 ± 0.11 |
| CTTAGTACGG | 1.01 ± 0.054 |
| CTTAGTGCTT | 0.973 ± 0.039 |
| CTTAGTGGGG | 0.962 ± 0.048 |
| CTTATAGGTC | 1.01 ± 0.017 |
| CTTATGATGG | 0.987 ± 0.01 |
| CTTATTAGGG | 0.986 ± 0.021 |
| CTTATTTTTT | 1.01 ± 0.029 |
| CTTCATAAGT | 0.983 ± 0.022 |
| CTTCATGCTT | 1.02 ± 0.048 |
| CTTCCGGAGG | 1.9 ± 0.048 |
| CTTCGGACGG | 1.24 ± 0.036 |

| Sequence | switch fluorescence ratio |
| --- | --- |
| CTTCGGGGCG | 1.01 ± 0.07 |
| CTTCGGGGTT | 1.03 ± 0.035 |
| CTTCGGTGGC | 1.01 ± 0.04 |
| CTTCGTATCG | 1.04 ± 0.059 |
| CTTCTACGAT | 0.998 ± 0.013 |
| CTTCTAGAT | 0.9895 ± 0.0013 |
| CTTCTGGTCG | 1.01 ± 0.04 |
| CTTCTTCGGT | 1 ± 0.015 |
| CTTCTTTCTC | 1.051 ± 0.0084 |
| CTTGAAAACT | 1.04 ± 0.044 |
| CTTGAACGAA | 1.02 ± 0.04 |
| CTTGAATTTC | 0.987 ± 0.017 |
| CTTGACAATT | 1 ± 0.023 |
| CTTGAGTGTG | 0.9827 ± 0.006 |
| CTTGCAAACG | 1.201 ± 0.0043 |
| CTTGCCTCAG | 1.021 ± 0.0076 |
| CTTGCTATGC | 1.64 ± 0.4 |
| CTTGCTGTTG | 1.0031 ± 0.00076 |
| CTTGGAGGAA | 0.999 ± 0.044 |
| CTTGGCGAGA | 1.01 ± 0.018 |
| CTTGGGAATA | 1.01 ± 0.05 |
| CTTGGGATCA | 0.971 ± 0.011 |
| CTTGGGATTA | 1.03 ± 0.016 |
| CTTGGGGATC | 0.979 ± 0.013 |
| CTTGGGGTTA | 0.998 ± 0.023 |

| Sequence | switch fluorescence ratio |
| --- | --- |
| CTTGTAAATT | 0.983 ± 0.035 |
| CTTGTACTAA | 1.012 ± 0.0062 |
| CTTGTATAGC | 0.992 ± 0.028 |
| CTTGTCATCT | 1.005 ± 0.0061 |
| CTTGTGAGGA | 1 ± 0.036 |
| CTTGTGGCGT | 1 ± 0.049 |
| CTTGTGTACG | 0.965 ± 0.02 |
| CTTGTGTGTT | 0.993 ± 0.057 |
| CTTTAAGGGA | 0.9875 ± 0.0035 |
| CTTTACAGGG | 1 ± 0.064 |
| CTTTACTTTT | 1.014 ± 0.0061 |
| CTTTATGCGG | 0.99361 ± 0.00077 |
| CTTTATGTCT | 1 ± 0.033 |
| CTTTGAGCGA | 1.11 ± 0.032 |
| CTTTGATTGA | 0.9806 ± 0.0047 |
| CTTTGCACGA | 1.1 ± 0.0077 |
| CTTTGTAGGG | 1.008 ± 0.0029 |
| CTTTGTAGTA | 0.977 ± 0.034 |
| CTTTGTGGGG | 1.01 ± 0.029 |
| CTTTTAACTC | 1.01 ± 0.024 |
| CTTTTAATAG | 1.08 ± 0.057 |
| CTTTTACATG | 1.003 ± 0.0095 |
| CTTTTAGAAC | 0.986 ± 0.027 |
| CTTTTCAGGT | 0.998 ± 0.019 |
| CTTTTCTGAT | 0.993 ± 0.04 |

| Sequence | switch fluorescence ratio |
| --- | --- |
| CTTTTCTGTT | 0.9861 ± 0.0085 |
| CTTTTGAGGA | 0.9952 ± 0.0042 |
| CTTTTGGGCG | 1.01 ± 0.056 |
| CTTTTTATGT | 0.96 ± 0.016 |
| CTTTTTGACT | 1.01 ± 0.028 |
| CTTTTTGGAC | 0.994 ± 0.071 |
| CTTTTTGGGA | 0.987 ± 0.012 |
| CTTTTTGTTG | 1.03 ± 0.031 |
| CTTTTTTAAT | 0.982 ± 0.012 |
| CTTTTTTGTT | 1 ± 0.021 |
| CTTTTTTTGG | 1 ± 0.022 |
| GAAAAAAGGA | 0.981 ± 0.028 |
| GAAAAACTGT | 1.06 ± 0.021 |
| GAAAAAGGAG | 1 ± 0.018 |
| GAAAAAGGCG | 1.01 ± 0.043 |
| GAAAAAGTCG | 0.997 ± 0.042 |
| GAAAACATAG | 1.01 ± 0.02 |
| GAAAACTTAA | 1.029 ± 0.006 |
| GAAAAGCATG | 0.988 ± 0.043 |
| GAAAAGGGAG | 0.974 ± 0.032 |
| GAAAATAGAT | 0.9663 ± 0.0028 |
| GAAAATTAGT | 1.016 ± 0.0023 |
| GAAAATTTTT | 1.06 ± 0.044 |
| GAAACAGTGT | 0.9732 ± 0.0046 |
| GAAACGGATG | 0.993 ± 0.041 |

| Sequence | switch fluorescence ratio |
| --- | --- |
| GAAACTAGTT | 0.992 ± 0.013 |
| GAAACTTAGG | 1.01 ± 0.019 |
| GAAAGAAGTC | 1.05 ± 0.02 |
| GAAAGAGAGT | 0.987 ± 0.023 |
| GAAAGATTAT | 1.03 ± 0.02 |
| GAAAGCCTTT | 1 ± 0.012 |
| GAAAGCGGCT | 1.032 ± 0.0089 |
| GAAAGGCAAA | 1.025 ± 0.0026 |
| GAAAGGCAGA | 1.01 ± 0.01 |
| GAAAGGGCTC | 1.09 ± 0.069 |
| GAAAGGGGAT | 0.99 ± 0.018 |
| GAAAGGGGGG | 1.04 ± 0.098 |
| GAAAGGGGTG | 1.02 ± 0.064 |
| GAAAGTGCAA | 1.09 ± 0.02 |
| GAAAGTTTGG | 1.01 ± 0.017 |
| GAAATACGGG | 1.09 ± 0.043 |
| GAAATATCAA | 0.974 ± 0.039 |
| GAAATCATCA | 0.96 ± 0.025 |
| GAAATGTCGG | 1.02 ± 0.028 |
| GAAATGTGTT | 1 ± 0.056 |
| GAAATTAAGT | 1.02 ± 0.045 |
| GAAATTAATA | 0.993 ± 0.027 |
| GAAATTGGGA | 1.08 ± 0.12 |
| GAAATTTAAA | 0.99756 ± 0.00083 |
| GAAATTTACT | 0.991 ± 0.053 |

| Sequence | switch fluorescence ratio |
| --- | --- |
| GAAATTTTCC | 1.35 ± 0.077 |
| GAACAAGGGA | 1.004 ± 0.0086 |
| GAACACTTCT | 1.05 ± 0.014 |
| GAACAGTCCG | 1.051 ± 0.0039 |
| GAACATCTCG | 0.993 ± 0.035 |
| GAACGAAAGG | 1.03 ± 0.042 |
| GAACGACCGC | 1.34 ± 0.065 |
| GAACGGACAC | 1.45 ± 0.015 |
| GAACGGCATG | 1.04 ± 0.015 |
| GAACGGCCGG | 1.004 ± 0.0092 |
| GAACTACAGG | 0.987 ± 0.041 |
| GAACTCTACT | 1.14 ± 0.044 |
| GAACTGGGGC | 0.942 ± 0.076 |
| GAAGAAAACT | 1.08 ± 0.014 |
| GAAGAACGAA | 1.022 ± 0.004 |
| GAAGACAGCG | 1.07 ± 0.024 |
| GAAGAGAGGG | 1.016 ± 0.0092 |
| GAAGAGAGGT | 0.9901 ± 0.0037 |
| GAAGAGGAGG | 1.04 ± 0.011 |
| GAAGAGGGGG | 0.991 ± 0.043 |
| GAAGAGTCGT | 0.992 ± 0.064 |
| GAAGATGTAG | 0.9558 ± 0.0033 |
| GAAGATTGGT | 0.981 ± 0.028 |
| GAAGCACGCC | 1.45 ± 0.0069 |
| GAAGCCGGGG | 0.9839 ± 0.0083 |
